Measured values taken from PMC11302929.
Values joined by “and” are separate entries in the source; they are usually repeats but may differ in a detail not shown here. Equal values may be shown once.

Experiments:
[1] = biological target: recombinant soluble NDV HN ectodomain including the stalk domain, without oligomerization domain (HN-M) (Newcastle disease virus); experiment: SEC; Superdex 200 Increase 10/300 GL column, freshly purified NDV HN proteins
[2] = biological target: recombinant soluble NDV HN ectodomain with tetrabrachion tetramerization domain (HN-TE) (not stated | Newcastle disease virus); experiment: as above

“recombinant soluble NDV HN ectodomain including the stalk domain, without oligomerization domain (HN-M) (domain or fragment)” was tested, and the stoichiometry N [1] was 2 and 4.
With “recombinant soluble NDV HN ectodomain with tetrabrachion tetramerization domain (HN-TE)” the stoichiometry N [2] was 4.
